Results reported in publication PMC6997370, “Significant improvement in catalytic activity and enantioselectivity of a Phaseolus vulgaris epoxide hydrolase, PvEH3, towards ortho-cresyl glycidyl ether based on the semi-rational design” (Scientific Reports, 2020).

What was measured:
[1] = substrate: Cc1ccccc1OC[C@@H]1CO1; assay: initial hydrolysis rate by HPLC, non-linear regression; type: biochemical, Phaseolus vulgaris; conditions: pH 7.0 phosphate 100 mM, 20 °C, 5% methanol, 1.5-15 mM substrate
From the text: (§1) initial hydrolysis rate by HPLC, non-linear regression on PvEH3

[2] = substrate: Cc1ccccc1OC[C@H]1CO1; assay: as above; type: biochemical, Phaseolus vulgaris; conditions: pH 7.0 phosphate 100 mM, 20 °C, 5% methanol, 1.5-15 mM substrate
From the text: as §1

| Protein | Km [1] [mM] | Km [2] [mM] | kcat [2] [s⁻¹] |
| --- | --- | --- | --- |
| PvEH3 (Phaseolus vulgaris) (protein, pET-28a(+), N-terminal 6xHis tag, E. coli BL21(DE3), Ni-NTA purified; catalytic Asp101, Tyr150, Tyr232) MEGIQHKEVEVNGIKMHVAEKGEGPVVLFLHGFPELWYSWRHQILALSSRGYRAVAPDLRGYGDTEAPASMSSYSCFDIVGDLVALIDLLGVDQVFLVAHDWGAIIGWYLCMFRPDRVKAYVCLSVPLLHRNPEIRTVDAMRAMYGDDYYICRFQKPGEMEAQMAEVGTGYVLKNILTTRKPGPPIFPKGEYGTGFNPDMTNSLPSWLSQHDLAYYVSKFQKTGFTGPLNYYRNMNPNWELTAPWSGAKIKVPVKFITGDLDMVYTSLNMKEYIHGGGFKEDVPNLEEVIVQKGVAHFNNQEAAEEINTHIYDFINKF | 6.14 ± 0.22 | 9.84 ± 0.28 | 1.12 ± 0.05 |
| PvEH3 (Phaseolus vulgaris; E134K/T137P) (protein, pET-28a(+), N-terminal 6xHis tag, E. coli BL21(DE3), Ni-NTA purified; catalytic Asp101, Tyr150, Tyr232) MEGIQHKEVEVNGIKMHVAEKGEGPVVLFLHGFPELWYSWRHQILALSSRGYRAVAPDLRGYGDTEAPASMSSYSCFDIVGDLVALIDLLGVDQVFLVAHDWGAIIGWYLCMFRPDRVKAYVCLSVPLLHRNPKIRPVDAMRAMYGDDYYICRFQKPGEMEAQMAEVGTGYVLKNILTTRKPGPPIFPKGEYGTGFNPDMTNSLPSWLSQHDLAYYVSKFQKTGFTGPLNYYRNMNPNWELTAPWSGAKIKVPVKFITGDLDMVYTSLNMKEYIHGGGFKEDVPNLEEVIVQKGVAHFNNQEAAEEINTHIYDFINKF | 3.29 ± 0.15 | 5.40 ± 0.21 | 1.37 ± 0.06 |
